For assay [1], the target named is T1, CD200R1 on Jurkat-CD200R1 cells (Homo sapiens, UniProt Q8TD46).
T1 construct: host or cells: Jurkat
T1 sequence (Q8TD46 25-348): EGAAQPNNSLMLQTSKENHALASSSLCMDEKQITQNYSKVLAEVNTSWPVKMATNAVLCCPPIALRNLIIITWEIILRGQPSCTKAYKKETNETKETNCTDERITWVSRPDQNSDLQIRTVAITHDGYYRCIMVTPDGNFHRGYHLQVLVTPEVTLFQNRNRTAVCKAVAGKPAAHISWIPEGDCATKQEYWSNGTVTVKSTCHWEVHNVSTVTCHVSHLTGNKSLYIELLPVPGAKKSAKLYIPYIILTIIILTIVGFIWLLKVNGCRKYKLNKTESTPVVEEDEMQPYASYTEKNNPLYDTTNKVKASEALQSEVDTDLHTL
In words: Cell binding assay (flow cytometry), Jurkat-CD200R1 cells. It counts as cell-based. The procedure:
The binding ability of the antibodies identified using unique multifaceted antibody discovery technology was identified in HH (CRL-2105) cells, which endogenously express CD200R1, and Jurkat-CD200R1 cells (Source: DiscoverX), which were generated by intranuclear injection of CD200R1 cDNA.
HH and Jurkat-CD200R1 cells were maintained in RPMI 1640 medium supplemented with 10% heat-inactivated FBS and 1% Penicillin/Streptomycin (P/S). The cells were washed by centrifugation at 130 g for 5 minutes. The cells were seeded onto 96-well round-bottom plates (SPL, #34296) at a density of 1×10^5 cells/well in Flow cytometry staining buffer (Invitrogen, #00-4222-26) or FACS buffer. The cells were treated with all 16 substances and the positive control LY3454738 (US 2020/0087395, I-4P, at Eli Lilly) a concentration of 500 nM in the IgG1 form. After incubation for 1 hour at 4° C., the cells were treated with Alexa-647 Goat anti-human IgG (H+L) cross-adsorbed secondary antibody (Invitrogen, #A21445) and incubated at 4° C. for an additional 30 minutes. […]
Cell-binding ability was determined in the same manner as in Example 12. For the six active substances primarily selected in Example 12, the isotype was changed to IgG4 or the LALAPG gene was mutated, and binding activity was determined in the two cell lines mentioned above.
Binding ability was determined in HH, an endogenous T cell line with high CD200R1 expression, and two additional overexpressing cell lines: U937-CD200R overexpressing cells, generated by intranuclear injection of human CD200R1 CDNA into the monocytic cell line U937 (CRL-1593.2) (Source: UMC Utrecht, the Netherlands) and Jurkat-CD200R overexpressing cells, were also cells engineered using a similar method.
All cell lines were maintained in RPMI 1640 medium supplemented with 10% heat-inactivated FBS and 1% penicillin/streptomycin (P/S) and cell binding was determined in the same manner as in Example 12. […]
Specific binding ability was determined using P001009 WT and antibody-optimized mutants, P001009v1, P001009v2, P001009v3, and P001009v4. […]
(In flow cytometry, cells or beads pass a laser one at a time.)

The subject of assay [2] is IL-6 in U937-CD200R1 cells. The assay can be described thus: IL-6 suppression in LPS-treated U937-CD200R1 cells (AlphaLISA). The settings on record: for IL-6: LPS-treated U937-CD200R1 cells, 24 h. Format: cell-based, human. The procedure:
To determine the binding ability of the candidates to U937-CD200R1-overexpressing cell lines and verify the efficacy thereof, the anti-inflammatory effect of anti-CD200R1 antibodies was analyzed. First, 5×10^6 U937-CD200R1 cells were added to 12 ml of medium, treated with 30 ng/ml of Phorbol 12-myristate 13-acetate (Sigma Aldrich, #P1585), and reacted at 37° C. in 5% CO2 for 24 hours. After reaction, the medium was replaced with RPMI 1640 medium containing only 10% heat-inactivated FBS, and 5×10^6 cells were maintained at 37° C. in 5% CO2 for 24 hours.
Cells were seeded on duplicate onto 96-well round-bottom plates (SPL, #34296) at 1×10^5 cells/50 μl/well. P001009 WT, P001009v1, and the previously published CD200R antibody LY3454738 (US 2020/0087395, I-4P, Eli Lilly) as a positive control were used in this experiment. The drug was serially diluted 10-fold from a maximum concentration of 100 nM and treated to the cells at concentrations of 10 nM, 1 nM, […], respectively. Additional cells were treated with 100 nM of hIgG4 kappa isotype control (Crownvivo, #C0004) as a negative control. Untreated cells were seeded in the same amount of medium (RPMI 1640 containing 10% heat-inactivated FBS) and incubated at 37° C., 5% CO2 for 1 hour. To induce an inflammatory response in drug-treated cells, each well was treated with 10 μl of lipopolysaccharide from Salmonella typhosa (Sigma Aldrich, #L7895) at a concentration of 1 μg/ml. One well was left untreated to assess the induction of inflammatory cytokines. After thorough mixing, the cells were incubated at 37° C. and 5% CO2 for 24 hours.
After centrifugation at 1100 g for 2 minutes, images of the pellets before and after LPS treatment were captured using a microscope (Carl Zeiss, AXIO VERT.A1). After LPS treatment, the pellet appeared as scattered debris (FIG. 18B) rather than uniform spheroids (FIG. 18A). This was observed under a microscope. The supernatant was collected and analyzed for inflammatory cytokines such as TNF-α and IL-6 using an EnVision® multimode plate reader (PerkinElmer). A bead-based cytokine assay was performed using the AlphaLISA immunoassay on the EnVision® instrument. TNF-α(human) AlphaLISA Detection Kit, 500 assay points (PerkinElmer, #AL208C) was used for TNF-α, and the IL-6 (human) AlphaLISA Detection Kit, 500 assay points (PerkinElmer, #AL223C) was used for IL-6. Cytokine levels were determined depending on the concentration of each antibody.
On the technique in general: Alpha assays give light when donor and acceptor beads are brought close together.

B1: P001009: phage display anti-CD200R1 clone; VH SEQ ID NO: 79, VL SEQ ID NO: 94 (antibody, V domains shown)
VH: EVQLLESGGGLVQPGGSLRLSCAASGFTFSSYDMSWVRQAPGKGLEWVSWISHGGGSIYYADSVKGRFTISRDNSKNTLYLQMNSLRAEDTAVYYCARDAPAYSAPLFDYWGQGTLVTVSS
VL: QSVLTQPPSASGTPGQRVTISCSGSSSNIGNNAVNWYQQLPGTAPKLLIYYDSNRPSGVPDRFSGSKSGTSASLAISGLRSEDEADYYCAAWDDSLSGYVFGGGTKLTVL
Consider B1, for which the “cell binding ability, IgG4 or LALAPG mutants” value in assay [1] (Jurkat-CD200R1 cells) is given as “highest efficacy”. Further, the IL-6 in assay [2] (log [Ab] (M) −7) came to 231.7 ± 24.1 pg/mL; in assay [2] (log [Ab] (M) −8), 401.5 ± 9.6 pg/mL; in assay [2] (log [Ab] (M) −9), 1245.6 ± 49.9 pg/mL; in assay [2] (log [Ab] (M) −10), 3398.1 ± 325.5 pg/mL; in assay [2] (log [Ab] (M) −11), 3751.0 ± 144.5 pg/mL; in assay [2] (log [Ab] (M) −12), 4512.7 ± 74.1 pg/mL.

B2: P001009v1: P001009 variant, LC S52 and LC S94 substituted with K and R; VH SEQ ID NO: 79 (antibody, V domains shown)
VH: EVQLLESGGGLVQPGGSLRLSCAASGFTFSSYDMSWVRQAPGKGLEWVSWISHGGGSIYYADSVKGRFTISRDNSKNTLYLQMNSLRAEDTAVYYCARDAPAYSAPLFDYWGQGTLVTVSS
VL: QSVLTQPPSASGTPGQRVTISCSGSSSNIGNNAVNWYQQLPGTAPKLLIYYDKNRPSGVPDRFSGSKSGTSASLAISGLRSEDEADYYCAAWDDRLSGYVFGGGTKLTVL
Take B2: the “binding ability to Jurkat-CD200R1” value in assay [1] (serial dilution from 100 nM) was “highest binding ability”. Also, the IL-6 in assay [2] (log [Ab] (M) −7) turned out to be 153.7 ± 8.8 pg/mL; in assay [2] (log [Ab] (M) −8) it was 165.1 ± 8.4 pg/mL; in assay [2] (log [Ab] (M) −9), 454.2 ± 45 pg/mL; in assay [2] (log [Ab] (M) −10) it was 2439 ± 56.8 pg/mL; in assay [2] (log [Ab] (M) −11), 3517.7 ± 166.3 pg/mL; in assay [2] (log [Ab] (M) −12) it was 4730.2 ± 99.8 pg/mL. In assay [2] (low nanomolar (nM) drug concentrations), the “IL-6 level” value is recorded as “maintained low inflammatory cytokine levels”.
